In article PMC10108556 (Antibody Therapeutics, 2023):

Tests used:
RBD-his = RBD-his (SARS-CoV-2, UniProt P0DTC2); experiment: AlphaScreen or HTRF
[1] = target: T1, SARS-CoV-2 RBD domain (residues 319-541) (SARS-CoV-2 Wuhan-Hu-1 (MN908947), UniProt P0DTC2); experiment: cryo-EM structure
[2] = target: T2, SARS-CoV-2 RBD domain (residues 319–541) with C-terminal twin-strep-tag II (SARS-CoV-2 Wuhan-Hu-1 (MN908947), UniProt P0DTC2); experiment: cryo-EM structure
[3] = target: T2, SARS-CoV-2 RBD domain (residues …); experiment: crystal structure
[4] = target: T1, SARS-CoV-2 RBD domain (residues 319-541); experiment: crystal structure

B1: nAb A34–2 (antibody, V domains shown)
VH: EVQLVESGGGLVQPGRSLRLSCAASGFTFDESAMHWVRQAPGEGLEWVSGISWNSGRIAYADSVRGRFTISRDNAKNSLYLQMNSLRAEDTALYFCALTTSGWFSFDYWGQGTLVTVSS
VL: SYVLTQPPSVSVAPGKTARITCGGNNIGSKSVHWYQQKPGQAPVPVIYYDSDRPSGIPERFSGSNSGNTATLTISRVEVGDEADYYCQVWDSSSDRAVFGGGTTLTVL
binding result (RBD-his): binds

B2: A34-2 Fab (Fab, V domains shown)
VH: B1 VH
VL: B1 VL
binding result [1]: binds

B3: A34–2 Fab (Fab, V domains shown)
VH: B1 VH
VL: B1 VL
binding result [2]: binds

B4: A5–10 Fab (Fab, V domains shown)
VH: EVQLLESGGGLVQPGGSLRLSCAASGFTFSSYAMSWVRQAPGKGLEWVSAIVGSGGSTYYADSVKGRFIISRDNSKNTLYLQMNSLRAEDTAVYYCAKSLIYGHYDILTGAYYFDYWGQGTLVTVSS
VL: AQMTQSPSSVSASVGDRVTIPCRASQGIGNWLAWYQQKPGKAPKLLIYAASSLQSGVPSRFSGSGSGTDFTLTISSLQPEDFATYYCQQANSFPPFGQGTRLEIK
binding result [2]: binds

B5: A5-10 Fab (Fab, V domains shown)
VH: B4 VH
VL: B4 VL
binding result [1]: binds

B6: nAb A5–10 (antibody, V domains shown)
VH: B4 VH
VL: B4 VL
binding result (RBD-his): binds

B7: A8–1 Fab (Fab, V domains shown)
VH: EVQLVESGGGLIQPGGSLRLSCAASGLTVSSNYMTWVRQAPGKGLEWVSVIYSGGSTFYAESVKGRFTISRDNSKNTLYLQMNSLRAEDTAVYYCARDLVVYGMDVWGQGTTVIVSS
VL: IQLTQSPSFLSASVGDRVTITCRASQGISSDLAWYQQKPGKAPKLLIYAASTLQSGVPSRFSGSGSGTEFTLTISSLQPEDFATYYCQQLNSHPLAFGPGTKVDIK
binding result [3]: binds

B8: nAb A8–1 (antibody, V domains shown)
VH: B7 VH
VL: B7 VL
binding result (RBD-his): binds

B9: A8-1 Fab (Fab, V domains shown)
VH: B7 VH
VL: B7 VL
binding result [4]: binds
